In one data set the target is TrpR (UniProt P0A881 2-108). Description: SPR; Trp; SPR: 1 mM SAM, 0.4 mM CoCl2 or 0.5 mM Trp, 100 ul/min, streptavidin CM5 chip; running buffer, pH and temperature not in material (DNA annealed in 25 mM HEPES pH). On the technique in general: Surface plasmon resonance follows binding to a sensor surface in real time, without labels.
The next data set deals with T1, MetJ (UniProt P0A8U6 2-105, Q45K).
T1 sequence: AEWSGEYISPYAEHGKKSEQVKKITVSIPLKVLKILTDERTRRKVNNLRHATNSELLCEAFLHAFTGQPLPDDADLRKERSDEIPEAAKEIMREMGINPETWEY
In words: SPR; SAM; SPR: 1 mM SAM, 0.4 mM CoCl2 or 0.5 mM Trp, 100 ul/min, streptavidin CM5 chip; running buffer, pH and temperature not in material (DNA annealed in 25 mM HEPES pH 7.4, 200 mM KCl, 5 mM MgCl2). The note with it: protein: recombinant; tags: 8xHis, TEV-cleaved; chain copies: 2; label: 3' biotin on anchor strand S4 (SPR); 5' overhang 14 nt of strand 1, annealed to biotin anchor S4 in SPR.

The text below walks through data of publication PMC13379313, “Clocked stepping of an artificial protein walker along a DNA track”.

As usually defined, the Kd is the concentration at which binding is half-saturated.

B1: trpR single site (NR206/NR207) (dsDNA)
DNA 1: CCACGCCCTAAGGTGAGCATAGTGGTACTCGCTAGCGAGTACCTCTGACTTC
DNA 2: GAAGTCAGAGGTACTCGCTAGCGAGTACCACTATGCTC
For B1, in the data set with TrpR, the Kd is 48 nM.

B2: metJ single site (NR139 top/bottom) (dsDNA)
DNA 1: CCACGCCCTAAGGTATGCTAGTTTGAGACGTCTCAAAACAGGA
DNA 2: TCCTGTTTTGAGACGTCTCAAACTAGCAT
Regarding B2, in the data set with MetJ, the Kd worked out at 4 ± 0.4 nM.
